From the supplement of paper PMC9170038

Key:
MS2 coat protein [1] = assay: apparent KD of MS2 coat protein, switch ON state; designed switch direction (-1 OFF switch, 1 ON switch): -1; higher = weaker reporter binding; details: FMN input: 0 or 200 uM; Eterna round: R93 (includes R88 designs)
How it was run: (§1)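 Designed RNA switches were transcribed on-chip from Illumina sequencing clusters and titrated with SNAP-549-labelled MS2 coat protein in twofold steps from 0.7 or 1.5 nM up to 3 µM. Each step lasted 0.8–1.5 h at first and 10–20 min by the end, in 100 mM Tris-HCl pH 7.5, 80 mM KCl and 4 mM MgCl2, without or with constant ligand. Apparent KD is the median, for each design, of fits to normalised cluster binding curves.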

MS2 coat protein [2] = assay: apparent KD of MS2 coat protein, switch OFF state (with FMN for OFF switches, without FMN for ON switches); designed switch direction (-1 OFF switch, 1 ON switch): -1; higher = weaker reporter binding; details: FMN input: 0 or 200 uM; Eterna round: R93 (includes R88 designs)
How it was run: as §1

Row | Sequence | apparent KD of MS2 coat protein (MS2 coat protein [1]) [nM] | apparent KD of MS2 coat protein (MS2 coat protein [2]) [nM]
1 | AAGAACCAAGGAUAUACAUGAAAGAAAGAAAAGAAAAGAAAACAUGAGGAUCACCCAUGUAGAAGGUGGUAGAA [EteRNA is fun!] | 70.2 | 105
2 | AAGAACUGAGGAUAUACAAAAUAAAAGAAAAGAAAGAAAGAACAUGAGGAUCACCCAUGUAGAAGGCGGAAGAA [Wahibre Ibiau] | 29.4 | 29.1
3 | AAGAACUGAGGAUAUACAUAAUAAAAGAAAAGAAAGAAAGAACAUGAGGAUCACCCAUGUAGAAGGCGGAAGAA [Khaneferre Sobekhotep IV] | 32.7 | 24.5
4 | AAGAAGAGAGGAUAUACAUAAUAAAAGAAAAGAAACAAAGAACAUGAGGAUCACCCAUGUAGAAGGCUCAAGAA [Khasekhemre Neferhotep I] | 32.1 | 51
5 | AAGAAGCAAGGAUAUACAUGAGGAUCACCCAUGUAAAAGAAAGAAAGGGAAAAGAAAAGUAGAAGGUGCAAGAA [Titkheperure Pasebakhenniut II] | 45.2 | 57
6 | AAGAAGUAAGGAUAUACAAAAUAAAAGAAAAGAAAGAAAGAACAUGAGGAUCACCCAUGUAGAAGGUACAAGAA [Sankhkare Mentuhotep III] | 38.1 | 19.6
7 | AAGAAGUCAGGAUAUGCAAAAGAAAAGAAAAGAAAAGAAAAGCAGAAGGGACAUGAGGAUCACCCAUGUAAGAA [Metsuire Cambyses] | 32.7 | 40.1
8 | AAGAAGUGAGGAUAUACAAAAUAAAAGAAAAGAAAGAAAGAACAUGAGGAUCACCCAUGUAGAAGGUACAAGAA [Khakheperre Senusret II] | 29 | 22
9 | AAGAAGUGAGGAUAUACAUGAGGAUCACCCAUGUAAAAGAAAGAAAGGGAAAAGAAAAGUAGAAGGCACAAGAA [Usermaatre-setpenre-meryamun Ramesses VII] | 36.5 | 67.7
10 | AAGAAGUGAGGAUAUACAUGAGGAUCACCCAUGUAAAAGAAAGAAGGGAAAGAGAAAAGUAGAAGGCGCAAGAA [Neferibre Psamtik II] | 38.9 | 42.1
11 | AAGAAGUGAGGAUAUACGCGAACAAAAAAAAAAAAGAAAGCGUAGAAGGCACAUGAGGAUCACCCAUGUCAAAA [Alfred Victor Espinas] | 30.1 | 28.3
12 | AAGAAGUGAGGAUAUCGAAGACUGUCGAAAAGACAGUCGAACGAGAAGGCACAUGAGGAUCACCCAUGUGGAAA [Marsurpial 65% 5] | 30.7 | 36.3
13 | AAGAAGUGAGGAUAUGGAAAAGAAAAGAAAAGAAAAGAAAACCAGAAGGCACAUGAGGAUCACCCAUGUAAGAA [Artabanus the Hyrcanian] | 29.5 | 28
14 | AAGAAGUGAGGAUAUGUCUGUGCGAAAAAAAAAAAGUGCAGACAGAAGGCACAUGAGGAUCACCCAUGUGAAAA [Florian 65% 4] | 21.9 | 26.7
15 | AAGAAGUUAGGAUAUACAAGAAAGAAAGAAAAGAAAAGAAAACAUGAGGAUCACCCAUGUAGAAGGAACUAGAA [EteRNA is fun!] | 26.8 | 19.6
16 | AAGAAUCGAGGAUAUACAUGAGGAUCACCCAUGUAAAAGAAAGAAAAGGGAAAGAAAAGUAGAAGGCGAAAGAA [Userkhaure Setnakht] | 32.8 | 35.3
17 | AAGAGGCUAGGAUAUACACAUCUGAUGACUCAACCUAAAACACAUGAGGAUCACCCAUGUAGAAGGAGCGAAAG [Qucequor] | 20.2 | 17
18 | AAGAUGUUAGGAUAUGCUGCUCGUCACAAAAGUGAUGAGUAGCAGAAGGGACAUGAGGAUCACCCAUGUAAAGA [JL eternac mod 6] | 45.5 | 34.8
19 | AAGCUGGUAGGAUAUACUAGGGCGACUAAUGCGCCGAUAGGACAUGAGGAUCACCCAUGUAGAAGGGCCAGAAA [JR_Exc002_Sub406] | 187 | 70
20 | AAGGAGUGAGGAUAUACAUGAGGAUCACCCAUGUUGAUGGAAACGUCAGAGAAAGAAGGUAGAAGGCACAAGAA [JR_Exclusion3_Sub6] | 51.2 | 54.1

Row | Sequence | apparent KD of MS2 coat protein (MS2 coat protein [1]) [nM] | apparent KD of MS2 coat protein (MS2 coat protein [2]) [nM]
21 | AAGGGACAUGAGGAUCACCCAUGUAAGGAUAUGCUAUGGAAAAUAAAAAUAAAACAUAGCAGAAGGUACAAAAA [Denovo 15] | 124 | 135
22 | AAGGGACAUGAGGAUCACCCAUGUCAGGAUAUGAUGCGAAUAAAGAAAGAAUAAAGCAUCAGAAGGGACACCAA [Mat - Exclusion 1 - Eli mod - D64] | 23 | 44.6
23 | AAGGGACAUGAGGAUCACCCAUGUCAGGAUAUGCUAUGGAAAAUAAAAAUAAAACAUAGCAGAAGGGACACCAA [64%, Meechl, 3] | 25.9 | 40.3
24 | AAUAAACAUGAGGAUCACCCAUGUAAGGAUAUCGAAAAAAAAAUAAACAAAAAAAAAACGAGAAGGUACAAAAA [Exclusion 1 design 2] | 24.1 | 27
25 | AAUAAACAUGAGGAUCACCCAUGUCAGGAUAUGCAUCUAACAUAAUAACAUAAAUACAGCAGAAGGGACUAAUA [JR_Exc001_Sub601] | 30.3 | 20.6
26 | AAUCCACAUGAGGAUCACCCAUGUGAGGAUAUCGUGCAGAAAAAAAAAAAAAACUGCACGAGAAGGCACAUGGA | 35.1 | 20.2
27 | ACAAAUGUAGGAUAUACAUGAGGAUCACCCAUGUGGCACAAACAGCAAACAAGACAAAGUAGAAGGACAACGAC [JR_Exc003-Sub901] | 24.9 | 28.4
28 | ACAGCGUGAGGAUAUACAUGAGGAUCACCCAUGUGAAACAGGAAAAACUGAAAGACAUGUAGAAGGCACGCUGA [Exclusion 3.3 (Janderson's 'Tweaking Eli' some more )] | 263 | 28.7
29 | ACAGUUACAGGAUAUACAUGGAAAAAUAAAAAUAAAAAACUACAUGAGGAUCACCCAUGUAGAAGGGUAACUGA [Ex2 Design 197: Random 12F] | 42.9 | 86.9
30 | ACCUAGUCAGGAUAUACAAACAUGUCAAAAGACGUGAAAAAACAUGAGGAUCACCCAUGUAGAAGGGACUAGGA [Mat - Exclusion 2 - JL mod - D22] | 20.5 | 19.7
31 | ACGUAGAGAGGAUAUACGAACAUGUCAAAAGACGUGAAGGGACAUGAGGAUCACCCAUGUAGAAGGCUCUACGA [Mat - Exclusion 2 - JL mod - D8] | 54.8 | 172
32 | ACUAAACGAGGAUAUACUGACAAACCUCAAACAUACAUCAAACAUGAGGAUCACCCAUGUAGAAGGCGUAAACU [JR_Exc002_Sub401] | 37.6 | 19.6
33 | ACUAGUACAGGAUAUACAUGAGGAUCACCCAUGUGAGAAUUAAGUGGCGUACCACAAAGUAGAAGGGUACUAGA [Mat - Exclusion 3 - JL mod - D14] | 34.3 | 152
34 | AGAAAACAUGAGGAUCACCCAUGUCAGGAUAUACAAAAUAAAAUAAAAAUAAAAUAAAGUAGAAGGGACAAAGA [Mat - Same state - Mayanna Mod - D109] | 33.5 | 42.7
35 | AGAAAACAUGAGGAUCACCCAUGUGAGGAUAUCGAUGUCCAAAAAAAAGUGCGGGACUCGAGAAGGCACUUGGA [Erbelaed] | 46.6 | 32.5
36 | AGAAAGUCAGGAUAUGCAGAAAAAAAAACGAAAAAAAAACUGCAGAAGGGACAUGAGGAUCACCCAUGUUAAAG [Mat - Exclusion 4 - Mayanna - D129] | 46.6 | 34.9
37 | AGAAAGUUAGGAUAUACAGAUAAAAAAACGAAAAAAAAUCUGUAGAAGGAACAUGAGGAUCACCCAUGUAAAGA [Mat - Exclusion 4 - Mayanna - D105] | 28.7 | 23.2
38 | AGAAUACAUGAGGAUCACCCAUGUGAGGAUAUCCAAAGAAAAAGAAAAGAAAAGAAAAGGAGAAGGCACAAAAG [EX 1 May 13] | 78.7 | 67.3
39 | AGAAUACAUGAGGAUCACCCAUGUGAGGAUAUGCAAAUAAAAAUAAAAUAAAAUAAAUGCAGAAGGCACGAAAG [EX 1 May 22] | 35.9 | 58.2
